This data set concerns the molecule itself. Nature of the data set: cryo-EM structure.

B1: elastase-digested native human uromodulin filaments (UMODe) (domain or fragment)
chain: not shown
modifications: N-glycans at N322, N396, N513
Regarding B1, the binding result is recorded as “binds”.

For the origin of these results see paper doi:10.1101/2020.05.28.119206 (bioRxiv, 2020).
